# Reference: IntAct's records for PubMed 22863753
# B1: NLR family CARD domain-containing protein 3 (Homo sapiens), Q7RTR2 (parent)
# chain: MRKQEVRTGREAGQGHGTGSPAEQVKALMDLLAGKGSQGSQAPQALDRTPDAPLGPCSNDSRIQRHRKALLSKVGGGPELGGPWHRLASLLLVEGLTDLQLREHDFTQVEATRGGGHPARTVALDRLFLPLSRVSVPPRVSITIGVAGMGKTTLVRHFVRLWAHGQVGKDFSLVLPLTFRDLNTHEKLCADRLICSVFPHVGEPSLAVAVPARALLILDGLDECRTPLDFSNTVACTDPKKEIPVDHLITNIIRGNLFPEVSIWITSRPSASGQIPGGLVDRMTEIRGFNEEEIKVCLEQMFPEDQALLGWMLSQVQADRALYLMCTVPAFCRLTGMALGHLWRSRTGPQDAELWPPRTLCELYSWYFRMALSGEGQEKGKASPRIEQVAHGGRKMVGTLGRLAFHGLLKKKYVFYEQDMKAFGVDLALLQGAPCSCFLQREETLASSVAYCFTHLSLQEFVAAAYYYGASRRAIFDLFTESGVSWPRLGFLTHFRSAAQRAMQAEDGRLDVFLRFLSGLLSPRVNALLAGSLLAQGEHQAYRTQVAELLQGCLRPDAAVCARAINVLHCLHELQHTELARSVEEAMESGALARLTGPAHRAALAYLLQVSDACAQEANLSLSLSQGVLQSLLPQLLYCRKLRLDTNQFQDPVMELLGSVLSGKDCRIQKISLAENQISNKGAKALARSLLVNRSLTSLDLRGNSIGPQGAKALADALKINRTLTSLSLQGNTVRDDGARSMAEALASNRTLSMLHLQKNSIGPMGAQRMADALKQNRSLKELMFSSNSIGDGGAKALAEALKVNQGLESLDLQSNSISDAGVAALMGALCTNQTLLSLSLRENSISPEGAQAIAHALCANSTLKNLDLTANLLHDQGARAIAVAVRENRTLTSLHLQWNFIQAGAAQALGQALQLNRSLTSLDLQENAIGDDGACAVARALKVNTALTALYLQVASIGASGAQVLGEALAVNRTLEILDLRGNAIGVAGAKALANALKVNSSLRRLNLQENSLGMDGAICIATALSGNHRLQHINLQGNHIGDSGARMISEAIKTNAPTCTVEM
# partner: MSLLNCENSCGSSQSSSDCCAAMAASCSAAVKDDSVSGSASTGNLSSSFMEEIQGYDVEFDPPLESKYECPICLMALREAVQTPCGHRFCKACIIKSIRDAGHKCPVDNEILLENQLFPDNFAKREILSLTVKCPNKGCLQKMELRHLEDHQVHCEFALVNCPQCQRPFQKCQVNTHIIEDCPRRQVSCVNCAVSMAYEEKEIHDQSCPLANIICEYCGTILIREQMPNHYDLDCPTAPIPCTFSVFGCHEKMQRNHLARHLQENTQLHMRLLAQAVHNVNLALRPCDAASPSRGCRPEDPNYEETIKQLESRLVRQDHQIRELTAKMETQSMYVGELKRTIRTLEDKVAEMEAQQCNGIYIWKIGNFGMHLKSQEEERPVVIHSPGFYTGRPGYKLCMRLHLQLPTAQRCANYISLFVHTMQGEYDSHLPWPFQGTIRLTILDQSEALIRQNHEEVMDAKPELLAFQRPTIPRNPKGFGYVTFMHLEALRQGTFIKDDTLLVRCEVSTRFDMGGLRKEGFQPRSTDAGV
# Variants of: B1
# Details: with traf6_mouse Traf6, P70196
row,Variant,effect of a mutation on the interaction
1,S457A;L458A;Q459A;E460A,decreasing interaction
